Data on one protein can be found in paper PMC4771823, “How the oxygen tolerance of a [NiFe]-hydrogenase depends on quaternary structure” (Journal of Biological Inorganic Chemistry, 2016).

The series concerns the molecule itself. Put plainly: SEC; Superdex 200 HR 10/30, running buffer with 0.02 % Triton X-100, pH 7.0, 50 mM sodium phosphate, 0.10 M NaCl, 4 °C, 0.15 mL/min; column calibrated with protein standards; dimer peak run again after 5 days at 4 °C; fractions analysed by SDS-PAGE; (αβ)2 dimer to (αβ) monomers. (SEC sorts molecules by how far they enter the pores of the column.)

B1: Hydrogenase-1 from E. coli, (αβ) heterodimer of large and small subunit (complex)
chain 1: MSTQYETQGYTINNAGRRLVVDPITRIEGHMRCEVNINDQNVITNAVSCGTMFRGLEIILQGRDPRDAWAFVERICGVCTGVHALASVYAIEDAIGIKVPDNANIIRNIMLATLWCHDHLVHFYQLAGMDWIDVLDALKADPRKTSELAQSLSSWPKSSPGYFFDVQNRLKKFVEGGQLGIFRNGYWGHPQYKLPPEANLMGFAHYLEALDFQREIVKIHAVFGGKNPHPNWIVGGMPCAINIDESGAVGAVNMERLNLVQSIITRTADFINNVMIPDALAIGQFNKPWSEIGTGLSDKCVLSYGAFPDIANDFGEKSLLMPGGAVINGDFNNVLPVDLVDPQQVQEFVDHAWYRYPNDQVGRHPFDGITDPWYNPGDVKGSDTNIQQLNEQERYSWIKAPRWRGNAMEVGPLARTLIAYHKGDAATVESVDRMMSALNLPLSGIQSTLGRILCRAHEAQWAAGKLQYFFDKLMTNLKNGNLATASTEKWEPATWPTECRGVGFTEAPRGALGHWAAIRDGKIDLYQCVVPTTWNASPRDPKGQIGAYEAALMNTKMAIPEQPLEILRTLHSFDPCLACSTH
chain 2: LENKPRIPVVWIHGLECTCCTESFIRSAHPLAKDVILSLISLDYDDTLMAAAGTQAEEVFEDIITQYNGKYILAVEGNPPLGEQGMFCISSGRPFIEKLKRAAAGASAIIAWGTCASWGCVQAARPNPTQATPIDKVITDKPIIKVPGCPPIPDVMSAIITYMVTFDRLPDVDRMGRPLMFYGQRIHDKCYRRAHFDAGEFVQSWDDDAARKGYCLYKMGCKGPTTYNACSSTRWNDGVSFPIQSGHGCLGCAENGFWDRGSFYSRVVDIPQMGTHSTADTVGLTALGVVAAAVGVHAVASAVDQRRRHNQQPTETEHQPGNEDKQA
notes: large (α) subunit of E. coli Hydrogenase-1, holds the [NiFe] active site; printed mass 64.6 kDa; small (β) subunit of E. coli Hydrogenase-1, holds the FeS clusters; printed mass 36.8 kDa; Purified by Ni-NTA, so one subunit should carry a His tag; Cytochrome b subunits are said to be normally lost during homogenisation; Two copies of this heterodimer form the (αβ)2 dimer; also called Hyd-1; Hyd-1 …
For the protein B1, the “stoichiometry N” value was 2.

Usually stoichiometry N stands for the number of molecules, sites or subunits per partner or assembly.
